# Laboratory results published in paper PMC11228984.
# B1: TREK2: N144Q (protein)
# parent chain: MFFLYTDFFLSLVAVPAAAPVCQPKSATNGQPPAPAPTPTPRLSISSRATVVARMEGTSQGGLQTVMKWKTVVAIFVVVVVYLVTGGLVFRALEQPFESSQKNTIALEKAEFLRDHVCVSPQELETLIQHALDADNAGVSPIGNSSNNSSHWDLGSAFFFAGTVITTIGYGNIAPSTEGGKIFCILYAIFGIPLFGFLLAGIGDQLGTIFGKSIARVEKVFRKKQVSQTKIRVISTILFILAGCIVFVTIPAVIFKYIEGWTALESIYFVVVTLTTVGFGDFVAGGNAGINYREWYKPLVWFWILVGLAYFAAVLSMIGDWLRVLSKKTKEEVGEIKAHAAEWKANVTAEFRETRRRLSVEIHDKLQRAATIRSMERRRLGLDQRAHSLDMLSPEKRSVFAALDTGRFKASSQESINNRPNNLRLKGPEQLNKHGQGASEDNIINKFGSTSRLTKRKNKDLKKTLPEDVQKIYKTFRNYSLDEEKKEEETEKMCNSDNSSTAMLTDCIQQHAELENGMIPTDTKDREPENNSLLEDRN
# Assay: expression and purification from insect cells
# Settings: glycan lost; control: unmutated TREK2 construct
protein,measurement,value
B1,expression_or_secretion,no change
